Assay: yeast display, Sf9 membrane polyspecificity reagent, FACS + sequencing; frameworks hold sequencing errors
Method in brief: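 Sorting gates, low and high (top ~1%), were placed on anti-HA fluorescence to track expression and on streptavidin fluorescence to track reagent binding. A clone's polyreactivity label is taken from the gate it came out of. The reagent was 10% biotinylated, detergent-solubilized Sf9 membrane, applied for 1 hour at 4 °C to galactose-induced yeast display cells.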

Row | Sequence | polyreactivity (PSR sort gate)
1 | QVHLVESGGGLVQAGGSLRLSCAASGRIFPGYAMGWYRQAPGKERELVAAISWIGGDTYYADSVKGRFTISRDNAKNTVYLQMNSLIPEDTAVYYCAARYGRHRVSWYATWRYGYWGQGTQVTVSS | low polyreactivity
2 | QVHLVESGGGLVQAGGSLRLSCAASGRIFRVYAMGWYRQAPGKERELVAAIRWSTGSTYYADSVKGRFTISRDIAKNTVYLHMNSLKPEDTAVYYCASYYYSSCSKFDYWGQGTQVTVSS | high polyreactivity
3 | QVHLVESGGGLVQAGGSLRLSCAASGRIFTYKAMGWYRQAPGKERELVAAITYRRSSTYYADSVKGRFTISRDNAKNTVYLQMNSLKTEDTAVYYCAAVFSGFYYAYDYWGQGTQVTVSS | high polyreactivity
4 | QVHLVESGGGLVQAGGSLRLSCAASGRILPFYAMGWYRQAPGKERELVATISWTSDSTYYADSVKGRFTISRDNAKNTVYLQMNSLKPEDTAVYYCAREYTYTYASTVIYDHWGQGTQVTVSS | low polyreactivity
5 | QVHLVESGGGLVQAGGSLRLSCAASGRILVRYAMGWYRQAPGKERELVAAISSSGSSTYYADSVKGRFTISRDNAKNTVYLQMNSLKPEDTAVYYCNKPDVTRGRDVYYWGQGTQVTVSS | low polyreactivity
6 | QVHLVESGGGLVQAGGSLRLSCAASGRIRYYAMGWYRQAPGKERELVAAITSSGGSTYYADSVKGRFTISRDNAKNTVYLQMNSLKPEVTAVYYCIAVASLSGDYWGQGTQVTVSS | high polyreactivity
7 | QVHLVESGGGLVQAGGSLRLSCAASGRIYTGNTMVWYRQAPGKEREFVAAISGSGGRTFYADSVKGRFTISRDNEKNTVYLQMNSLKPEDTAVYYCAARRYRSLGSYGTGSFSYNYWGQGTQVTVSS | high polyreactivity
8 | QVHLVESGGGLVQAGGSLRLSCAASGRNFGTYAMGWYRQAPGKDRELVADISSSGTSTYYADSVKGRFTISRDNAKNTVYLQMNSLKPEDTAVSYCDVVAIDYAYDYYFRLGYDYWGQGTQVSVSS | low polyreactivity
9 | QVHLVESGGGLVQAGGSLRLSCAASGRTFDYNAMGWYRQATGKERELVAAIRFGGGSTYYADSVKGRFTISRDNAKNTVYLQMNSLKPEDTAVYYCNASPLWIGWEIVPVGSSHYDYWGQGTQVTVSS | low polyreactivity
10 | QVHLVESGGGLVQAGGSLRLSCAASGRTFGLYDMGWYRQAPGKERELVAGITRRGGRTYYADSVKGRFTISRDNAKNTVYLQMNSLKPEDTAVYYCAAGTIYLRHAQSPFDYWGQGTQVTVSS | high polyreactivity
11 | QVHLVESGGGLVQAGGSLRLSCAASGRTFGYYAMGWYRHAPGKERELVAAISRSAATTYYADSVKGRFSISRDNAKNTVYLQMYSLKPDDTAVYYCAAGGRTYAPCDYGYWGQGTQVTVSS | high polyreactivity
12 | QVHLVESGGGLVQAGGSLRLSCAASGRTFGYYAMGWYRPAPWKEWELVAAITQSGGSTYYADSVKGRFTISRDTAKITVYLQMHSLKPEDTAVYYCAADDKYFYPGNGYWGQGTQVTVSS | high polyreactivity
13 | QVHLVESGGGLVQAGGSLRLSCAASGRTFIYYAMGWYRQAPGKERELVAAISSGGSTDYADSVKGRFTISRDNAKNTVYLQMNSLKPEDTAVYYCSAVVGYITYYGYDYWGQGTQVTVSS | low polyreactivity
14 | QVHLVESGGGLVQAGGSLRLSCAASGRTFRLYAMGWYRQAPGKERELVAAITRGGRTNYADSVKGRFTISRDNAKNTVFLQMISLKPEDTAVYYCAARYVERHTDYYYWGQGTQVTVSS | low polyreactivity
15 | QVHLVESGGGLVQAGGSLRLSCAASGRTFRSNAMGWYRQAPGKEREFVAAISGRGGITYYADSVKGRFTISRDNAKNTVYLQMNSLKPEDTAVYYCNRDVKYHDYVYVTAIKSPGYNYWGQGTQVTVSS | low polyreactivity
16 | QVHLVESGGGLVQAGGSLRLSCAASGRTFYIYAMGWYRQAPGKERELVAGIRWSGDSTYYADSVKGRFTISRDNAKNTVYLQMNRLKPEDTAVYYCAADISYELLSYYWYYYWGQGSQVTVSS | high polyreactivity
17 | QVHLVESGGGLVQAGGSLRLSCAASGRTFYLYTMGWYRQAPGKEREFVAIISRSGASTRYADSVKGRFTISRDNAKNTVYLQMNSLKPEDTAVYYCAAYVGYPYDYWGQGTQVTVSS | high polyreactivity
18 | QVHLVESGGGLVQAGGSLRLSCAASGRTFYYNAMGWYRQEPGKEREFVAAIRYSGSITYYADSVKGRFTISRDNAKNTVYLQMNSLKPEDTAVYYCAADYVSRRYYYWGQGTQVTVSS | high polyreactivity
19 | QVHLVESGGGLVQAGGSLRLSCAASGRTIQTYTMGWYRQAPGKERELVAVITTRGGRTYYADSVKGRFTISRDNAKNTVYLQMNILKPEDTGVYYCNKGITTRSVRSYDYWGQGTQVTVSS | high polyreactivity
20 | QVHLVESGGGLVQAGGSLRLSCAASGSIFASNTMGWYRQAPGKERELVAGITKIGSSTYYADSVKGRFTISRDNAKNTVYLQMNSLKPEDTAVYYCNAYGPNIYSSRYDYWGQGTQVTVSS | low polyreactivity

Row | Sequence | polyreactivity (PSR sort gate)
21 | QVHLVESGGGLVQAGGSLRLSCAASGSIFAVNAMGWYRQAPGKERELVAVITSRGGSTYYADSVKGRFTISRDNAKNTVYLQMNSLKPEDTAVYYCAARPGAAGYKYYYWGQGTQVTVSS | high polyreactivity
22 | QVHLVESGGGLVQAGGSLRLSCAASGSIFFVNAMGWYRQAPGKERELVADISSGGSTNYADSVKGRFTISRDNAKNTVYLQMNSLKPEDTAVYYCNTDEPPIYERFPYDYWGQGTQVTVSS | low polyreactivity
23 | QVHLVESGGGLVQAGGSLRLSCAASGSIFGRYAMGWYRQAPGKEREFVAAISRGATNTYYADSVKGRFTISRDNAKNTVYLQMNSLKPEDTAVYYCARTQRYDYGYDYWGQGTQVTVSS | low polyreactivity
24 | QVHLVESGGGLVQAGGSLRLSCAASGSIFIYNAMGWYRQAPGKERELVAAISWSGDSTYYADSVKGRFTISRDNAKNTVYLQMNSLKPEDTAVYYCNAKPSRKWGRGTGKQYDYWGQGTQVTVSS | high polyreactivity
25 | QVHLVESGGGLVQAGGSLRLSCAASGSIFKKNTLGWYRQAPGKERELVAVISSSGTRTYYADSVKGRFTISRDNAKNTVYLQMNSLKPEDTAVYYCARRAGGERDDYWGQGTQVTVSS | high polyreactivity
26 | QVHLVESGGGLVQAGGSLRLSCAASGSIFKYNAMGWYRQSPGKERELVAAISSGGSTNYADSVKGRFTISRDNAKNTVYLQMNSLKPEDTAVYYCAKDRRRWYYTRDYWGQGTQVTVSS | low polyreactivity
27 | QVHLVESGGGLVQAGGSLRLSCAASGSIFLAYAMGWYRQAPGKERELVAAISGGGSTYADSVKGRFTISRDNAKNTVYLQMNSLKPEDTAVYYCNADGRGDRFWSNFRFDYWGQGTQVTVSS | low polyreactivity
28 | QVHLVESGGGLVQAGGSLRLSCAASGSIFPYNVMGWYTQAPGTERELVAAISTRGGRTYYADSVKGRFTISRDNANNTVYLELNSLKPEDTAVYDCATAGGPYSDYGYYWGQGTQVTVSS | high polyreactivity
29 | QVHLVESGGGLVQAGGSLRLSCAASGSIFRGYAMGWSRQAPGKERELVAAITSGGSTNYADSVNGRFTISRDNANNTVYLQMNSLKPEDTAVYYCNTVRWGRRTTFYYWGQGTQVTVSS | low polyreactivity
30 | QVHLVESGGGLVQAGGSLRLSCAASGSIFRNNAMGWYRQAPGKARELVAVISRSGGSTYYADSVKGRFTISRDNAKNTVYLDMNSLKPEDTAVYYCDVGYWGRLGFRGYGYWGQGTQVTVSS | low polyreactivity
31 | QVHLVESGGGLVQAGGSLRLSCAASGSIFSSYAMGWYRQATGKERELVASISSGGSTNYADSVKGRFTISRDNAKNTVYLQMNSLKPEDTAVYYCNVDLYNWRGDSTGYDYWGQGTQVTVSS | low polyreactivity
32 | QVHLVESGGGLVQAGGSLRLSCAASGSIFVQYAMGWYRQAPGKERELVAAITRDGDRTYYADSVKGRFTISRDNAKNTVYLQMNSLKPEDTAVYYCAARHSSIRSPQYDYWGQGTQVTVSS | high polyreactivity
33 | QVHLVESGGGLVQAGGSLRLSCAASGSIFYYYGMGWYRQAPGIERELVAAISSGGRTYYADSVKGRFTISRDNAKNTVYLQMDSLKPEDTAVYYCAKPGSYAVYSGWHDYWGQGTQVTVSS | high polyreactivity
34 | QVHLVESGGGLVQAGGSLRLSCAASGSIKQNAMGWYRQAPGKERELVAAIDWDGSSTYYADSVKGRFTISRDNAKNTVYLQMNSLKPEDTAVYYCNTDYTGPDGTDEYDYWGQGTQVTVSS | low polyreactivity
35 | QVHLVESGGGLVQAGGSLRLSCAASGSILTDNAMGWYRQAPGKERELVAAITSSGNTNYADSVKGRFTISRDNAKNTVYLQMNSLKPEDTAVYYCAADSYYKHWTDWLPVGEDYWGQGTEVTVSS | low polyreactivity
36 | QVHLVESGGGLVQAGGSLRLSCAASGSILYGNAMGWYRQAPGKERELVAAISYSGGRTYYADSVKGRFTISRDNAKNTVYLQMNSLKPEDTAVYYCAALHSGRVQNFDYWGQGTQVTVSS | high polyreactivity
37 | QVHLVESGGGLVQAGGSLRLSCAASGSIRVEYAMGWNRQAPGKERELVATITDSGNTNYADSVKGRFTISRDNAKNTVYLQMNSLKPEDTAVYYCAADAYPYYWLDQAFGYDYWGQGTQVTVSS | low polyreactivity
38 | QVHLVESGGGLVQAGGSLRLSCAASGSIVFLYAMGWYRQAPGKEWELVAAISGRGTSTDYADSVKGRFTISRDNAKNTVYLQLTSLKPEDTAVYFCAAKYNRPYQGWRVNHWGQGTQVTVSS | high polyreactivity
39 | QVHLVESGGGLVQAGGSLRLSCAASGSIYTRYAMGWYRQAPGKERDLVAAITVSGGSTYYADSVKGRFTISRDNAKNTVYLQMNSLKPEDTAVYYCARRAWSGPGYFKAIRRFDYWGQGTQVTVSS | low polyreactivity
40 | QVHLVESGGGLVQAGGSLRLSCAASGSNCTYYAMGWYRQAPGKERELVAAIDFSGASTSYADSVKGRFTISRDNAKNTVYFQMNSLKPEDTAVYYCAAVLYWYPPYYYWGQGTQVTVSS | low polyreactivity
